According to publication doi:10.1101/2023.05.30.542914 (bioRxiv, 2023):

T1: COPB2_(1-304), N-terminal WD-repeat domain of the COPB2 coatomer subunit (S. cerevisiae, UniProt P41811 1-304)
T1 sequence: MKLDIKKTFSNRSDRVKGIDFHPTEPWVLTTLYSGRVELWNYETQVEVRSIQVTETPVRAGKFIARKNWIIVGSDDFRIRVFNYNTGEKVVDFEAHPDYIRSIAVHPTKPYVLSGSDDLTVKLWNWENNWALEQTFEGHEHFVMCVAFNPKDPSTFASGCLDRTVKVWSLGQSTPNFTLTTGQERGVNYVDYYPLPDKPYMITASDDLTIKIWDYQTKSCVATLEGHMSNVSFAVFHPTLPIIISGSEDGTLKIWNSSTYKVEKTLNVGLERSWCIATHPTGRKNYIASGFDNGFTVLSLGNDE


Target: T1, COPB2_(1-304), N-terminal WD-repeat …
Experiment: ITC

| Binder | Kd [µM] |
| --- | --- |
| PVRASRNKRPTFLKIKKP [Exosome Binding Peptide (EBP) of Wnt7a, 18 aa polypeptide (240-257)] | 11.6 |
| LKIKKP [Wnt_(252-257) peptide (LKIKKP), C-terminal half of the EBP] | 37.2 |
